Values quoted from earlier work, collected in US12180485B2, “Repressible control of gene expression” (TRUSTEES OF BOSTON UNIVERSITY, priority 2020, dated 2024).

Assays:
NS3a-genotype 1b = NS3a-genotype 1b (Hepatitis C virus genotype 1b, UniProt P26663, A1092G/F1173S/K1113A/P1112Q); details: disrupted by NS3a-targeting drugs; read-out: affinity of basal complex with NS3a-genotype 1b; cited from earlier work
apo NS3a = apo NS3a (Hepatitis C virus genotype 1a, UniProt P27958, T1100M/T1173A); details: cited from earlier work
NS3a/danoprevir complex = NS3a/danoprevir complex (Hepatitis C virus genotype 1a, UniProt P27958, T1100M/T1173A); details: cited from earlier work
[1] = read-out: affinity (Kd); cited from earlier work
[2] = system: luciferase and endogenous transcripts; details: cited from earlier work

GELDELVYLLDGPGYDPIHSD [ANR]
Kd (NS3a-genotype 1b): 10 nM

B1: DNCR2: danoprevir/NS3 complex reader, SEQ ID NO: 163 (protein)
chain: SSDEEEARELIERAKEAAERAQEAAERTGDPRVRELARELKRLAQEAAEEVKRDPSSSDVNEALKLIVEAIEAAVDALEAAERTGDPEVRELARELVRLAVEAAEEVQRNPSSSDVNEALHSIVYAIEAAIFALEAAERTGDPEVRELARELVRLAVEAAEEVQRNPSSRNVEHALMRIVLAIYLAEENLREAEESGDPEKREKARERVREAVERAEEVQRDPSGWLNH
binding to apo NS3a (apo NS3a): no detectable binding
selectivity over NS3a bound to the drugs grazoprevir or asunaprevir (NS3a/danoprevir complex): > 20,000 fold
binding to free danoprevir (NS3a/danoprevir complex; free danoprevir, no NS3a): does not bind substantially
Kd (NS3a/danoprevir complex; read-out: affinity for the NS3a/danoprevir complex): 0.036 nM

B2: aCaffVHH: VHH camelid antibody that specifically binds to caffeine, SEQ ID NO: 1980 (protein)
VHH: EVQLQASGGGLVQAGGSLRLSCTASGRTGTIYSMAWFRQAPGKEREFLATVGWSSGITYYMDSVKGRFTISRDNAKNSAYLQMNSLKPEDTAVYYCTATRAYSVGYDYWGQGTQVTVSH
Kd [1]: 500 nM

B3: LwaCas13b: Leptotrichia wadei Cas13a, SEQ ID NO: 2 (protein, listed as Leptotrichia wadei)
chain: MKVTKVDGISHKKYIEEGKLVKSTSEENRTSERLSELLSIRLDIYIKNPDNASEEENRIRRENLKKFFSNKVLHLKDSVLYLKNRKEKNAVQDKNYSEEDISEYDLKNKNSFSVLKKILLNEDVNSEELEIFRKDVEAKLNKINSLKYSFEENKANYQKINENNVEKVGGKSKRNIIYDYYRESAKRNDYINNVQEAFDKLYKKEDIEKLFFLIENSKKHEKYKIREYYHKIIGRKNDKENFAKIIYEEIQNVNNIKELIEKIPDMSELKKSQVFYKYYLDKEELNDKNIKYAFCHFVEIEMSQLLKNYVYKRLSNISNDKIKRIFEYQNLKKLIENKLLNKLDTYVRNCGKYNYYLQVGEIATSDFIARNRQNEAFLRNIIGVSSVAYFSLRNILETENENGITGRMRGKTVKNNKGEEKYVSGEVDKIYNENKQNEVKENLKMFYSYDFNMDNKNEIEDFFANIDEAISSIRHGIVHFNLELEGKDIFAFKNIAPSEISKKMFQNEINEKKLKLKIFKQLNSANVFNYYEKDVIIKYLKNTKFNFVNKNIPFVPSFTKLYNKIEDLRNTLKFFWSVPKDKEEKDAQIYLLKNIYYGEFLNKFVKNSKVFFKITNEVIKINKQRNQKTGHYKYQKFENIEKTVPVEYLAIIQSREMINNQDKEEKNTYIDFIQQIFLKGFIDYLNKNNLKYIESNNNNDNNDIFSKIKIKKDNKEKYDKILKNYEKHNRNKEIPHEINEFVREIKLGKILKYTENLNMFYLILKLLNHKELTNLKGSLEKYQSANKEETFSDELELINLLNLDNNRVTEDFELEANEIGKFLDFNENKIKDRKELKKFDTNKIYFDGENIIKHRAFYNIKKYGMLNLLEKIADKAKYKISLKELKEYSNKKNEIEKNYTMQQNLHRKYARPKKDEKFNDEDYKEYEKAIGNIQKYTHLKNKVEFNELNLLQGLLLKILHRLVGYTSIWERDLRFRLKGEFPENHYIEEIFNFDNSKNVKYKSGQIVEKYINFYKELYKDNVEKRSIYSDKKVKKLKQEKKDLYIRNYIAHFNYIPHAEISLLEVLENLRKLLSYDRKLKNAIMKSIVDILKEYGFVATFKIGADKKIEIQTLESEKIVHLKNLKKKKLMTDRNSEELCELVKVMFEYKALE
knockdown efficiency [2]: 50%
